Measurements reported in patent US20190153113A1, “CD39 VASCULAR ISOFORM TARGETING AGENTS” (INNATE PHARMA, priority 2015, published 2019).

Experiments:
[1] = target: T1, Human CD39 (vascular CD39, NTPDase1, ENTPD1) expressed at the cell surface (human, UniProt P49961 1-510); assay: cell-based or functional assay
T1 sequence: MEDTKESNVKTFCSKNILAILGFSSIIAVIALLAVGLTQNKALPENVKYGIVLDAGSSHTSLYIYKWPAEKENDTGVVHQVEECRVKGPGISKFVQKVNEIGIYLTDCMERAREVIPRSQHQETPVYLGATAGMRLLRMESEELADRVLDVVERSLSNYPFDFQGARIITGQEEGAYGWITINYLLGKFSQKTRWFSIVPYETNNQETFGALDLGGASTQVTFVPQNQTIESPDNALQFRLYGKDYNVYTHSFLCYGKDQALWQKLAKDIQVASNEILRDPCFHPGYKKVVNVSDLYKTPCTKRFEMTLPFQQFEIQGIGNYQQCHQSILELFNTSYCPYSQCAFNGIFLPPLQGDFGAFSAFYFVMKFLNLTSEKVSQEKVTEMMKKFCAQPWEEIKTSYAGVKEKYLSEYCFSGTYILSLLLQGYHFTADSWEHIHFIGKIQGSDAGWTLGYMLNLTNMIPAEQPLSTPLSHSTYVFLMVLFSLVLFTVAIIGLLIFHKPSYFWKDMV

[2] = target: T2, CD39 mutant 15 (K87A, E100A, D107A) (human, UniProt P49961 1-510); assay: flow cytometry, HEK293T cells transfected with mutant 15
T2 construct: Transfected in HEK293T cells
T2 chain: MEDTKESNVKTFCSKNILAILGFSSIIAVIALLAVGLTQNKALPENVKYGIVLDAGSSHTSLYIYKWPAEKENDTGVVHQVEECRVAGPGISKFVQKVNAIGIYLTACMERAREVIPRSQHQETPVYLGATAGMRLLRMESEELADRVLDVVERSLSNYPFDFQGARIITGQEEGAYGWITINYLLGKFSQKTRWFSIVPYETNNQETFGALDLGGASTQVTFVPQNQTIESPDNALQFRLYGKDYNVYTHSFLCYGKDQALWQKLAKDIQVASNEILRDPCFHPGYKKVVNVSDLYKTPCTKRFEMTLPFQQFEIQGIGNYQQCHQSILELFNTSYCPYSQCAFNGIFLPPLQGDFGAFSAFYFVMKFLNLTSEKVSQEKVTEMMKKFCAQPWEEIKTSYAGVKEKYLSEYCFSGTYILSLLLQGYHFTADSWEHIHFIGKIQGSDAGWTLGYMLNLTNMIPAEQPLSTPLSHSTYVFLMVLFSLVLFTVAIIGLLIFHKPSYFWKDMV

[3] = target: T3, CD39 mutant 2B (E110A, R113T, E114A) (human, UniProt P49961 1-510); assay: flow cytometry, HEK293T cells transfected with mutant 2B
T3 construct: Transfected in HEK293T cells
T3 chain: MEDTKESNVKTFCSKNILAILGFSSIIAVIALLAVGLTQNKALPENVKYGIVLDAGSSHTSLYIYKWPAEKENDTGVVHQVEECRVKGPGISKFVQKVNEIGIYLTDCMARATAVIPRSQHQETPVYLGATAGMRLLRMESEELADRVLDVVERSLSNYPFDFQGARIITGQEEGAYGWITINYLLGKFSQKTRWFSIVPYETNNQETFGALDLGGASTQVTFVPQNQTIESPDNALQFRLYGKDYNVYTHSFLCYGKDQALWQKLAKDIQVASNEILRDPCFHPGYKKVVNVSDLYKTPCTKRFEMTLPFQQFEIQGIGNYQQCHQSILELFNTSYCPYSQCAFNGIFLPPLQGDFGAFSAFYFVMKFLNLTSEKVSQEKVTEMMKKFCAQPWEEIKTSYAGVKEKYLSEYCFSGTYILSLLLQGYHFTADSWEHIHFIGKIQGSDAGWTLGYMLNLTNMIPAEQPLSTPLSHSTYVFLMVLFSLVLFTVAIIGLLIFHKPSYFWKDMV

[4] = target: T4, Recombinant human CD39-L2 (NTPDase6, ENTPD6) (human, UniProt O75354 61-484, limits assumed); assay: ELISA on coated RechuCD39-L2, OD 450 nm [top panel CHS2-I-391]
T4 construct: Coated in ELISA
T4 sequence: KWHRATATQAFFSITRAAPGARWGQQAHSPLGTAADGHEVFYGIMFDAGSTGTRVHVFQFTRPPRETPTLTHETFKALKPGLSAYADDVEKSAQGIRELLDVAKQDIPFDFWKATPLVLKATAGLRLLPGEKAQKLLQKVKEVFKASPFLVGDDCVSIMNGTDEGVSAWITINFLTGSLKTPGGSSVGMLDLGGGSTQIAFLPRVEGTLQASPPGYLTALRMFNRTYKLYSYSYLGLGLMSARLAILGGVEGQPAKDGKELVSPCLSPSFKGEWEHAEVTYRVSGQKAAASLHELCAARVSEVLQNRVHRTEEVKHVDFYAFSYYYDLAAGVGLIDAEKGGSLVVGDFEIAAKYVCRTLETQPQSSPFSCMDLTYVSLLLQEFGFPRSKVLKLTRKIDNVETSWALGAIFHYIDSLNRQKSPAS
Description: Wells were washed in TBS Tween 20, and further saturated 2H at RT in TBS Blocking buffer. Dose range concentration of primary antibody was incubated in TBS blocking buffer for 2h at RT. Wells were washed in TBS Tween 20. […] Optical density was measured on Enspire at OD=450.

B1: Antibody I-391, Fc silent recombinant chimeric human IgG1 with heavy chain N297Q mutation (antibody, V domains shown)
VH: QIQLVQSGPELKKPGETVKISCKASGYTFRNYGMNWVKQAPGKGLKWMGWINTYTGEPTYADDFKGRFAFSLATSASTAYLQISNLKNEDTATYFCARKAYYGSNYYFDYWGQGTTLTVSS
VL: DIVMTQSHKFMSTSVGDRVSITCKASQDVSTAVAWYQQKPGQSPKLLIYSASYRYTGVPDRFTGSGSGTDFTFTISTVQAEDLAVYYCQQHYTTPPYTFGGGTKLEIKR
Q: What does the source list for B1?
A: EC50 (inhibition of 50% of the enzymatic activity of CD39 expressed by 100,000 Ramos cells), AMP generated, Maldi TOF [1]: 1.2 nM; binding result [2]: binds; binding result [3]: binds; binding result [4]: no binding (tested: 50 ug/ml)
